Measurements: patent US11660961B2, “Host cells and methods for producing isopentenol from mevalonate” (The Regents of the University of California, priority 2015, dated 2023)
Positions count from the first letter of the chain named. In names and notes the source's numbering stands. Several values for one entry are separate records, joined by “and”; a condition that tells them apart may be missing. Identical values can stand only once. Like-named read-outs stand apart in the source and are kept apart here.

Assays:
[1] = In vitro enzyme kinetics of decarboxylases, ADP formation coupled to NADH oxidation; assay type: biochemical; conditions: for Km / kcat / % of WT (kcat/Km): substrate MVAP; for % of WT (kcat/Km): relative to PMDsc wild type
Experimental: A plasmid encoding a wild type mevalonate diphosphate decarboxylase from Saccharomyces cerevisiae (PMDsc) with N-terminal His-tag (pSKB3-PMDsc) is transformed into E. coli BL21 (DE3). A seed culture of BL21 (DE3) harboring pSKB3-PMDsc is prepared by inoculating a single colony and growing it overnight in Luria-Bertani (LB) medium containing kanamycin (50 μg/mL). The seed culture is diluted in Terrific Broth supplemented with 2% glycerol and 50 μg/mL kanamycin and incubated at 37° C. until the optical density of the culture at 600 nm (OD600) reached to 0.6-0.8. The cell culture is supplemented with isopropyl-β-D-thiogalactopyranoside (IPTG) to the final concentration of 0.5 mM and transferred to 18° C. for protein expression overnight. Cells are collected by centrifugation and re-suspended in 50 mM Tris-HCl (pH 7.5) buffer containing 300 mM NaCl and 10 mM imidazole. Cells are lysed by sonication and purified by HisPur Cobalt Resins (Thermo Scientific, USA). The purified PMDss is desalted in 10 mM Tris-HCl (pH 7.5) containing 50 mM NaCl, 0.5 mM dithiothreitol (DTT) and 20% glycerol, and flash-frozen in liquid nitrogen for storage at −80° C. All PIVD mutants, PMDsc, and NudB are purified as described above, except that NudB is desalted in 50 mM Tris-HCl (pH 8.0) buffer containing 0.1 mM EDTA, 1 mM DTT and 20% glycerol.
(§1) In vitro enzyme kinetics of decarboxylases are performed as described in previous studies (Barta et al., 2012 and Vannice et al., 2014). Briefly, enzymatic activity of decarboxylase is determined by a spectrophotometer assay quantifying ADP product formation, which is coupled to NADH oxidation by pyruvate kinase/lactate dehydrogenase. Assay mixtures are prepared in 50 mM HEPES-KOH (pH 7.5) containing 10 mM MgCl2, 400 μM phosphoenolpyruvate, 200 μM NADH, 4 mM ATP, and 25 U of pyruvate kinase/lactate dehydrogenase (Sigma, P0294). The reaction is initiated by addition of various concentrations of MVAP from 100 μM to 4,000 μM, and the reaction velocity is determined by monitoring OD at 340 nm in Spectramax 384plus microplate reader (Molecular Devices, USA).

E. coli BW25113 = test: Isopentenol production in E. coli; assay type: cell-based, Escherichia coli; conditions: for isopentenol productivity: pathway II, through 30 hours of batch fermentation; for effect on in vivo isopentenol production: expressed in IPP-bypass pathway II in E. coli
Experimental: E. coli BW25113 harboring two plasmids is used for isopentenol production. Seed cultures of all production strains are prepared by growing single colonies in LB medium containing 100 μg/mL ampicillin and 30 μg/mL chloramphenicol overnight at 37° C. with shaking at 200 rpm. The seed cultures are diluted in EZ-Rich defined medium (Teknova, USA) containing 10 g/L glucose (1%, w/v), 100 μg/mL ampicillin and 30 μg/mL chloramphenicol. The E. coli cell cultures are incubated in rotary shakers (200 rpm) at 37° C., and 0.5 mM IPTG is added to induce protein expression at OD600 of 0.6-0.8. To provide different levels of aeration, identical volumes of the cell culture are split into two flasks for incubation at 30° C. with shaking at either 200 rpm or 30 rpm.
For isopentenol quantification, 250 μL of cell culture is combined with 250 μL of ethyl acetate containing 1-butanol (30 mg/L) as an internal standard. This mixture of ethyl acetate and cell culture is vigorously shaken for 15 min and subsequently centrifuged at 13,000 g for 2 min to separate ethyl acetate from the aqueous phase. 100 μL of the ethyl acetate layer was diluted 5-fold, and 1 μL is analyzed by Agilent GCMS equipped with Cyclosil-B column (Agilent, USA) or Thermo GCFID equipped with DB-WAX column (Agilent, USA) for quantitation of isopentenol.

[2] = In vitro decarboxylase activity toward MVA; assay type: biochemical
Experimental: as §1, with “The reaction is initiated by addition of various concentrations of MVAP from 100 μM to 4,000 μM, and the reaction velocity is determined by monitoring OD at 340 nm in Spectramax 384plus microplate reader (Molecular Devices, USA).” left out

[3] = substrate MVAPP, cited from earlier work
[4] = In vitro enzyme kinetics of decarboxylases, ADP formation coupled to NADH oxidation; assay type: biochemical; conditions: in vitro assay reactions using cell lysates
[5] = In vitro hydrolysis of IP to isopentenol (purified enzyme or cell lysates); assay type: biochemical; conditions: purified NudB or lysates of cells overexpressing the phosphatase
Experimental: To identify IP-hydrolyzing endogenous phosphatases, single gene knockout mutants of 36 phosphatases, of which substrates are mostly mono-phosphorylated metabolites, are retrieved from the Keio collection (Baba et al., 2006). 1 mL overnight cultures from each mutant are concentrated in 0.5 mL of 50 mM Tris-HCl (pH 8.0) buffer containing 1 mM DTT and ˜50 mg of glass beads (<100 μm, Sigma-Aldrich, USA). Cells are lysed by bead-beating for 2 min at 6.0 M/s (MP biomedicals Fast Prep, USA). After centrifugation of cell lysates at 20,000 g for 10 min, clear supernatant is used for assay reaction containing 0.5 mM isopentenyl monophosphate (IP). An equal volume of ethyl acetate is added to 100 μL of assay reaction after incubating overnight at 30° C., and isopentenol is extracted for 10 min by vigorous mixing.
Coding sequences of agp, aphA, and yqaB are amplified from BW25113 genome by PCR, and they are subsequently cloned to pBbE1a vector (Lee et al., 2011) for over-expression. Expression of these three genes are induced by addition of 0.5 mM IPTG to the cell cultures, and cell lysates of each sample are prepared with three biological replicates as described above for screening of the 36 mutants. 600 μL of assay reactions containing cell lysates, 1 mM DTT are prepared and the reaction is initiated by addition of 0.5 mM IP. […] Quantification of metabolites

[6] = In vitro hydrolysis of IPP by purified Nudix hydrolase; assay type: biochemical; conditions: purified enzyme with IPP; up to 16 hours
Experimental: All metabolites are analyzed by liquid chromatography mass spectrometry (LC-MS; Agilent Technologies 1200 Series HPLC system and Agilent Technologies 6210 time-of-flight mass spectrometer) on a ZIC-HILIC column (150 mm length, 2.1-mm internal diameter, and 3.5-μm particle size). Standard chemicals (IPP and IP) are purchased from Sigma-Aldrich (USA). Metabolites are eluted isocratically with a mobile phase composition of 64% (v/v) acetonitrile containing 50 mM ammonium acetate with a flow rate of 0.15 mL/min. IPP and IP from E. coli extracts or enzyme assay are quantified via […] calibration curves ranging from 781.25 nM to 200 μM.

B1: PMDsc WT: wild type mevalonate diphosphate decarboxylase from Saccharomyces cerevisiae (protein, UniProt P32377 1-396, looked up)
Diphosphomevalonate …: MTVYTASVTAPVNIATLKYWGKRDTKLNLPTNSSISVTLSQDDLRTLTSAATAPEFERDTLWLNGEPHSIDNERTQNCLRDLRQLRKEMESKDASLPTLSQWKLHIVSENNFPTAAGLASSAAGFAALVSAIAKLYQLPQSTSEISRIARKGSGSACRSLFGGYVAWEMGKAEDGHDSMAVQIADSSDWPQMKACVLVVSDIKKDVSSTQGMQLTVATSELFKERIEHVVPKRFEVMRKAIVEKDFATFAKETMMDSNSFHATCLDSFPPIFYMNDTSKRIISWCHTINQFYGETIVAYTFDAGPNAVLYYLAENESKLFAFIYKLFGSVPGWDKKFTTEQLEAFNHQFESSNFTARELDLELQKDVARVILTQVGSGPQETNESLIDAKTGLPKE
Km toward MVAP, fold higher than reported Km toward MVAPP ([1]; MVAP vs native substrate MVAPP): ~8 fold | kcat toward MVAP, fold lower than reported kcat toward MVAPP ([1]; MVAP vs native substrate MVAPP): about 35 fold | Km [1]: 990 µM | kcat [1]: 0.14 s⁻¹ | % of WT (kcat/Km) [1]: 100% | isopentenol productivity (E. coli BW25113): 15.9 mg/L/h | activity on MVA [2]: too low to determine the kinetic parameters | Km ([3]; Krepkiy and Miziorko, 2004): 123 µM | kcat ([3]; literature): 5.9 s⁻¹ and 5.4 s⁻¹

B2: PMDsc T209D: PMDsc mutant, T209 mutated to negatively charged aspartate (protein)
chain: B1 Diphosphomevalonate … with T209D
Km [1]: 990 µM | kcat [1]: 0.13 s⁻¹ | % of WT (kcat/Km) [1]: 98% | effect on in vivo isopentenol production (E. coli BW25113): do not significantly change the in vivo production titer

B3: PMDsc R74H: PMDsc mutant R74H (protein)
chain: B1 Diphosphomevalonate … with R74H
Km [1]: 770 µM | kcat [1]: 0.23 s⁻¹ | % of WT (kcat/Km) [1]: 220% | % of WT (kcat/Km) ([1]; listed as R74H): 220% | isopentenol productivity (E. coli BW25113): 20.4 mg/L/h | activity on MVA [2]: do not show detectible hydrolysis activity on MVA

B4: S208E: PMDsc mutant, serine 208 mutated to glutamate (protein, UniProt P32377 1-396, looked up, variant S208E)
Diphosphomevalonate …: B1 Diphosphomevalonate … with S208E
product formation from MVAP [4]: do not produce detectible amount of product

B5: PMDsc K22M: PMDsc mutant, K22 mutated to neutral methionine (protein)
chain: B1 Diphosphomevalonate … with K22M
Km [1]: 2470 µM | kcat [1]: 0.09 s⁻¹ | % of WT (kcat/Km) [1]: 25% | effect on in vivo isopentenol production (E. coli BW25113): do not significantly change the in vivo production titer

B6: PMDsc I145F: PMDsc mutant I145F (protein)
chain: B1 Diphosphomevalonate … with I145F
Km [1]: 1360 µM | kcat [1]: 0.28 s⁻¹ | % of WT (kcat/Km) [1]: 147% | % of WT (kcat/Km) ([1]; listed as I145F): 147% | effect on in vivo isopentenol production (E. coli BW25113): reduces isopentenol titer and productivity | activity on MVA [2]: do not show detectible hydrolysis activity on MVA

B7: S155E: PMDsc mutant, serine 155 mutated to glutamate (protein, UniProt P32377 1-396, looked up, variant S155E)
Diphosphomevalonate …: B1 Diphosphomevalonate … with S155E
product formation from MVAP [4]: do not produce detectible amount of product

B8: aphA: E. coli-endogenous phosphatase found to hydrolyze IP to isopentenol (protein, UniProt P0AE22 26-237, looked up)
Class B acid phosphatase: SSPSPLNPGTNVARLAEQAPIHWVSVAQIENSLAGRPPMAVGFDIDDTVLFSSPGFWRGKKTFSPESEDYLKNPVFWEKMNNGWDEFSIPKEVARQLIDMHVRRGDAIFFVTGRSPTKTETVSKTLADNFHIPATNMNPVIFAGDKPGQNTKSQWLQDKNIRIFYGDSDNDITAARDVGARGIRILRASNSTYKPLPQAGAFGEEVIVNSEY
effect on in vivo isopentenol production (E. coli BW25113): does not significantly increase the isopentenol production | hydrolysis of IP to isopentenol [5]: significantly higher and faster hydrolysis activity on IP

B9: NudF: NudF of B. subtilis, identified as a IPP hydrolase (protein, UniProt P54570 1-185, looked up)
ADP-ribose pyrophosphatase: MKSLEEKTIAKEQIFSGKVIDLYVEDVELPNGKASKREIVKHPGAVAVLAVTDEGKIIMVKQFRKPLERTIVEIPAGKLEKGEEPEYTALRELEEETGYTAKKLTKITAFYTSPGFADEIVHVFLAEELSVLEEKRELDEDEFVEVMEVTLEDALKLVESREVYDAKTAYAIQYLQLKEALQAQK
IPP hydrolysis product [6]: hydrolyze IPP to IP, but not to isopentenol
